Settings: Saccharomyces cerevisiae (strain ATCC 204508 / S288c), pH 4.6, Thermal, CD, Unknown, reversible: yes

Chain of Cytochrome c isoform 1 L100I|Y103F, P00044 L100I Y103F (P00044 whole entry L100I/Y103F, canonical isoform): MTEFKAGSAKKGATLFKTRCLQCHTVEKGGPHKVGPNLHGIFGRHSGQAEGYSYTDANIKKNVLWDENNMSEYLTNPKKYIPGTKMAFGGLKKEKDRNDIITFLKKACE
Chain of Cytochrome c isoform 1 L100I, P00044 (P00044 whole entry L100I, canonical isoform): as the sequence (P00044 whole entry L100I/Y103F, canonical isoform) above, with F103Y counted along it
Chain of Cytochrome c isoform 1 Y103A, P00044 (P00044 whole entry Y103A, canonical isoform): as the sequence (P00044 whole entry L100I/Y103F, canonical isoform) above, with I100L, F103A counted along it
Chain of Cytochrome c isoform 1 F16Y, P00044 (P00044 whole entry F16Y, canonical isoform): as the sequence (P00044 whole entry L100I/Y103F, canonical isoform) above, with F16Y, I100L, F103Y counted along it
Chain of Cytochrome c isoform 1 L100A, P00044 (P00044 whole entry L100A, canonical isoform): as the sequence (P00044 whole entry L100I/Y103F, canonical isoform) above, with I100A, F103Y counted along it
Chain of Cytochrome c isoform 1 L100A|Y103F, P00044 L100A Y103F (P00044 whole entry L100A/Y103F, canonical isoform): as the sequence (P00044 whole entry L100I/Y103F, canonical isoform) above, with I100A counted along it
Chain of Cytochrome c isoform 1 L100V, P00044 (P00044 whole entry L100V, canonical isoform): as the sequence (P00044 whole entry L100I/Y103F, canonical isoform) above, with I100V, F103Y counted along it
Chain of Cytochrome c isoform 1 wild type, P00044 (P00044 whole entry, canonical isoform): as the sequence (P00044 whole entry L100I/Y103F, canonical isoform) above, with I100L, F103Y counted along it
Chain of Cytochrome c isoform 1 L100T, P00044 (P00044 whole entry L100T, canonical isoform): as the sequence (P00044 whole entry L100I/Y103F, canonical isoform) above, with I100T, F103Y counted along it
Chain of Cytochrome c isoform 1 Y103F, P00044 (P00044 whole entry Y103F, canonical isoform): as the sequence (P00044 whole entry L100I/Y103F, canonical isoform) above, with I100L counted along it
Chain of Cytochrome c isoform 1 F16W, P00044 (P00044 whole entry F16W, canonical isoform): as the sequence (P00044 whole entry L100I/Y103F, canonical isoform) above, with F16W, I100L, F103Y counted along it
Chain of Cytochrome c isoform 1 F16I, P00044 (P00044 whole entry F16I, canonical isoform): as the sequence (P00044 whole entry L100I/Y103F, canonical isoform) above, with F16I, I100L, F103Y counted along it

Substance	Tm (structure 1YCC) [°C]	change of melting temperature, mutant - wild type (higher = more stable) (structure 1YCC) [°C]	heat capacity change of unfolding (structure 1YCC) [kcal/mol/K]	unfolding enthalpy (van 't Hoff) (structure 1YCC) [kcal/mol]	heat capacity change of unfolding (52.8 °C, structure 1YCC) [kcal/mol/K]	unfolding free energy (52.8 °C, structure 1YCC) [kcal/mol]	heat capacity change of unfolding (52.8 °C) [kcal/mol/K]	unfolding free energy (52.8 °C) [kcal/mol]	Tm [°C]	heat capacity change of unfolding [kcal/mol/K]	unfolding enthalpy (van 't Hoff) [kcal/mol]
Cytochrome c isoform 1 F16I, P00044	48.5	-4.3	1.57	79.9							
Cytochrome c isoform 1 F16W, P00044	47.6	-5.2	1.6	75.6							
Cytochrome c isoform 1 F16Y, P00044	50.9	-1.9	1.26	75.5							
Cytochrome c isoform 1 L100A, P00044	36.6	-16.2	1.94	52.6							
Cytochrome c isoform 1 L100A|Y103F, P00044 L100A Y103F	33.4	-19.4	1.78	53.7							
Cytochrome c isoform 1 L100I, P00044	54.1	1.3	1.81	87.2	1.81	0.33					
Cytochrome c isoform 1 L100I|Y103F, P00044 L100I Y103F	49.9	-2.9	1.76	79.9							
Cytochrome c isoform 1 L100T, P00044	38.9	-13.9	1.49	57.8							
Cytochrome c isoform 1 L100V, P00044	48.8	-4	1.54	81.6							
Cytochrome c isoform 1 Y103A, P00044	31.1	-21.7	1.77	49.2							
Cytochrome c isoform 1 Y103F, P00044	53.8	1	1.53	84.5	1.53	0.24					
Cytochrome c isoform 1 wild type, P00044							1.37	0	52.8	1.37	82.5
